We go through 2 substances from article PMC9961482.

Experiment [1] has as its target Encapsulin–SpyTag (Myxococcus xanthus | Streptococcus pyogenes) (UniProt Q1D6H4). As to the kind of experiment: SEC-MALS. (Size exclusion chromatography separates by hydrodynamic size, large species first.)
For experiment [2], the target named is human ACE2-hFc fusion protein (human) (UniProt Q9BYF1). As to the kind of experiment: SPR. On the technique in general: Surface plasmon resonance follows binding to a sensor surface in real time, without labels.

By stoichiometry N is commonly meant the number of molecules, sites or subunits per partner or assembly. On to “Encapsulin–SpyTag (from UniProt Q1D6H4 1-287)”, for which the stoichiometry N in experiment [1] was 180.
A word on the kon: it is the rate constant with which the complex forms. In experiment [2], “Encapsulin–mRBD nanoparticle (from UniProt Q1D6H4;P0DTC2) (complex)” had a kon of 2.58e+06 M⁻¹ s⁻¹, a per cent reduction of binding after four weeks at 37 °C of 36 per cent and a per cent reduction of binding after two weeks at 37 °C of 1 per cent.
